The results in this text go back to patent publication US20020045591A1, “Methods and therapeutic compositions for treating cancer” (priority 1998, published 2002).

Experiment [1] deals with β-catenin-mediated transactivation. The experiment is described as follows: TOPFLASH luciferase transactivation in SW480 cells (Example 1). Format: cell-based, human. The note with it: SW480 cells transfected with TOPFLASH and N-cadherin derivative, FIG. 6A. As for the experimental part: Cell culture and transfections: CHO and SW480 human colon carcinoma cells were cultured in Dulbecco's modified Eagle's medium containing 10% fetal calf serum in an 8% CO2 incubator at 37° C. Transfections were performed using Lipofectamine (Gibco, BRL, USA) according to the manufacturer's instructions. Stably transfected CHO clones were generated by co-transfection with a plasmid encoding the puromycin resistance gene. Two days after transfection, cells were replated in the presence of 10 μg/ml puromycin (Sigma, Holon, Israel). Stable clones were isolated 2 weeks later and tested for the expression of the transgene by Western blot analysis.
Transactivation assays: CHO cells were transfected with TOPFLASH or FOPFLASH vectors (van de Wetering et al., 1997, ibid) and with pCDNA3 coding for β-galactosidase to normalize for transfection efficiency. The transfection mixture also contained either β-catenin, LEF-1 or cadherin derivatives in different combinations, as indicated. SW480 cells were transfected with TOPFLASH and cadherin derivatives. […] The reactions were stopped with 1 M Na2CO3 and the absorbance at 420 nm was determined. […] The luciferase reaction was monitored by a TD-20e luminometer (Turner, USA) and normalized for the β-galactosidase activity. […]

Another experiment deals with T1, β-catenin (Cricetulus griseus, UniProt G3H996).
T1 construct: resulting from the stabilization of the endogenous β-catenin by the transfected cadherin derivatives; endogenous in cells; host or cells: CHO cells, stably or transiently transfected with cadherin derivatives only
T1 sequence (G3H996 1-781): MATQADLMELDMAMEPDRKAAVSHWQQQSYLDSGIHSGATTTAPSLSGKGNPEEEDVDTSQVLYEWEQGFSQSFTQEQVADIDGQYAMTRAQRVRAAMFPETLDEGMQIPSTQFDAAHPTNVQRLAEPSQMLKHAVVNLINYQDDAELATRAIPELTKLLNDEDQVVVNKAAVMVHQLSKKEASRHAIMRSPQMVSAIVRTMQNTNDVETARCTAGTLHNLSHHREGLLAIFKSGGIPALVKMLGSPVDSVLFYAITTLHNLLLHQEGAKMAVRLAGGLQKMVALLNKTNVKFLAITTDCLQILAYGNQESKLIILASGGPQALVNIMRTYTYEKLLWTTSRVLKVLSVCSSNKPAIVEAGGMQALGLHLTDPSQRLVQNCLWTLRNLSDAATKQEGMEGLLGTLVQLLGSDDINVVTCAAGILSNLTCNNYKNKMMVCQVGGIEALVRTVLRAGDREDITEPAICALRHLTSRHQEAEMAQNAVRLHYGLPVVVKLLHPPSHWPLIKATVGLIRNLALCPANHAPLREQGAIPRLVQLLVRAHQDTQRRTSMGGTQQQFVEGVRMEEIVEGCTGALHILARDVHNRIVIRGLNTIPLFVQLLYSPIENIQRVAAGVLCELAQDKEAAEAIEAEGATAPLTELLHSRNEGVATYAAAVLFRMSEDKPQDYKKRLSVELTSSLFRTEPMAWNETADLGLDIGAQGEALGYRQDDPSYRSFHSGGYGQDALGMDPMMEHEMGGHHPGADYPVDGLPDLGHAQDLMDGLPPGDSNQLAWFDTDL
Description: Co-immunoprecipitation of cadherin derivatives with β-catenin in CHO cells. Format: binding. The conditions noted are these: stably transfected CHO cells, FIG. 2B. The source says: Immunoblotting and immunoprecipitation: The following antibodies were used: polyclonal pan-cadherin or monoclonal anti cadherin (CH-19) and polyclonal anti β-catenin antibodies were from Sigma (Holon, Israel). Monoclonal anti β-catenin, 5H10 (from M. Wheelock), anti IL2Rα (from UBI), anti flag (M2, from IBI), anti HA (clone 12CA5, from Boehringer Mannheim, Germany), anti GFP (polyclonal, from Clontech, Palo Alto, Calif.), anti LEF-1 (polyclonal, kindly provided by Dr. R. Grosschedl). Secondary antibodies for Western blotting were goat anti rabbit or anti mouse conjugated to HRP (Amersham, Buckinghampshire, UK), and for immunofluorescence analysis the secondary antibodies were FITC-goat anti mouse (Cappel, USA) or rhodamine-anti rabbit antibodies (from Jackson Immuno-Research, West Grove, Pa.). Cells were harvested in Laemmli's sample buffer and equal amounts of total cell protein from the different clones, or from transient transfections, were separated by SDS-PAGE, electrotransferred to nitrocellulose and incubated with the different antibodies. For immunoprecipitation, cells were harvested in IP buffer (20 mM Tris pH 8.0, 1% Triton X-100, 140 mM NaCl, 10% glycerol, 1 mM EGTA, 1.5 mM MgCl2, 1 mM DTT, 1 mM sodium vanadate, and 50 μg/ml PMSF). […]

A further experiment relates to CHO cells. Description: Immunofluorescence localization in CHO cells. Format: cell-based. The conditions noted are these: stably transfected CHO cells, FIG. 4. The text has this: Immunofluorescence microscopy: Cells cultured on glass coverslips were fixed with 3% paraformaldehyde in phosphate-buffered saline (PBS) and permeabilized with 0.5% Triton X-100. CHO cells were immunofluorescently labeled as described (Levenberg S. et al. (1998) Long-range and selective autoregulation of cell-cell and cell-matrix adhesions by cadherin or integrin ligands. J. Cell Sci. 111:347-357). Nuclei were visualized using DAPI and the fluorescence was examined using a Zeiss Axiophot microscope and a x100/1.3 Planapochromat objective.

B1: N-cadherin tail: Cytoplasmic domain of chicken N-cadherin tagged with a Flag epitope (protein)
chain: MKRRDKERQAKQLLIDPEDDVRDNILKYDEEGGGEEDQDYDLSQLQQPDTVEPDAIKPVGIRRLDERPIHAEPQYPVRSAAPHPGDIGDFINEGLKAADNDPTAPPYDSLLVFDYEGSGSTAGSLSSLNSSSSGGEQDYDYLNDWGPRFKKLADMYGGGDD
modifications: left off: small tags and cut ends
For the molecule B1, the “inhibition of TOPFLASH reporter (luciferase) activity” value in experiment [1] is listed as “more than 85%”. Also, the “interaction with β-catenin by co-immunoprecipitation” value with β-catenin was “direct interaction”. For the same molecule, in the experiment with CHO cells, the “subcellular localization of cadherin derivative and β-catenin” value is given as “mainly localized in the nucleus”.
